# Patent US20190161551A1
# Assays:
# [1] = biological target: human TrkB extracellular domain (aa Cys32-His430) expressed with the Fc portion of human IgG1 at the C-terminus (human); assay: competition ELISA, 500 pM hTrkB-hFc pre-mixed with mAb, plate-coated hBDNF
# [2] = biological target: human TrkB extracellular domain (aa Cys32-His430) expressed with the Fc portion of human IgG1 at the C-terminus (human); assay: competition ELISA, 500 pM hTrkB-hFc pre-mixed with mAb, plate-coated hNT-4
# Sequence of human TrkB extracellular domain (aa Cys32-His430) expressed with the Fc portion of human IgG1 at the C-terminus (human) (chain, as listed by the source limits assumed): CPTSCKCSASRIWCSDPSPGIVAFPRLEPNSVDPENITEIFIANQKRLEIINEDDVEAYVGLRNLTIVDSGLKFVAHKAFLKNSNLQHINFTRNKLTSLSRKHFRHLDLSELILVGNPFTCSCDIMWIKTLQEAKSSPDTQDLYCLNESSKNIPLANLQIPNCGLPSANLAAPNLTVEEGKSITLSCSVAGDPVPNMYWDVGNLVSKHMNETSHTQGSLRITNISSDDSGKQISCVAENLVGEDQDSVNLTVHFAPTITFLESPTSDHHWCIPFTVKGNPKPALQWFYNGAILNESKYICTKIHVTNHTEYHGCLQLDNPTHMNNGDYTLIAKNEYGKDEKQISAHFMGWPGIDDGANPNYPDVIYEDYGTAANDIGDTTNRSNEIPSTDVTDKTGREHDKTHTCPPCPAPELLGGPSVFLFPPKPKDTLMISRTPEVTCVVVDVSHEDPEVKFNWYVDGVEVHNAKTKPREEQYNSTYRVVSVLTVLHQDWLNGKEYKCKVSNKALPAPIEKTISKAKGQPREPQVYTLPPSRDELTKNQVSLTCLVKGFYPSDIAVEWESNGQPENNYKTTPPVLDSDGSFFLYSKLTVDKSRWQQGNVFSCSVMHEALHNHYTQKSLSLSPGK
% Blockade with 100 nM antibody [1] [%],% Blockade with 100 nM antibody [2] [%],Substance
-31,-45,hIgG4 negative isotype control (antibody)
-19,-14,mIgG1 negative isotype control (antibody)
